Some results are limits rather than exact numbers.

Consider two molecules from patent publication US20210373004A1 (BIOASTER, published 2021).

Test [1] has as its target T1, Flag-mCherry-ColE9-6His (Escherichia coli).
T1 construct: also called Colicin E9
The experiment in a line: EIA 8 plex n° 1: colicin coated at 100 nM, Im-RLuc8 alone at 100 nM, luciferase signal (FIG. 3, light grey bars).

For test [2], the target named is T1, Flag-mCherry-ColE9-6His. Briefly: EIA 8 plex n° 2: colicin coated at 100 nM, Im-RLuc8 alone at 100 nM, luciferase signal (FIG. 4, light grey bars).
Test [3] has as its target T2, Flag-EmGFP-ColE7-6His (Escherichia coli).
T2 construct: also called Colicin E7
The experiment in a line: EIA 8 plex n° 1: colicin coated at 100 nM, Im-RLuc8 alone at 100 nM, luciferase signal.

The target of test [4] is T3, Flag-mCherry-ColAP41-Cys-6His (Pseudomonas aeruginosa AP41). Described as above.
The target in test [5] is T4, Flag-mCherry-ColSyr-Cys-6His (Pseudomonas syringae B728A). Described as above.
Test [6] has as its target T5, Flag-mCherry-ColE8-6His (Escherichia coli).
T5 construct: also called Colicin E8
Briefly: kinetics, literature value (Li W. et al., 2004) printed above the bar pair; unit from the legend paragraph 10.

Test [7] concerns the target T2, Flag-EmGFP-ColE7-6His. Described as above.
Test [8] addresses T1, Flag-mCherry-ColE9-6His. The description is as above.
The target of test [9] is T1, Flag-mCherry-ColE9-6His. Briefly: EIA 4 plex: colicin coated at 100 nM, Im-RLuc8 alone at 100 nM, luciferase signal (FIG. 1, light grey bars).
Test [10] concerns the target T6, Flag-mCherry-ColLeaf-Cys-6His (Pseudomonas sp Leaf83). The experiment in a line: EIA 8 plex n° 2: colicin coated at 100 nM, Im-RLuc8 at 100 nM, luminescence; light bar alone, dark bar with the 7 other unfused Im proteins.
The target in test [11] is T3, Flag-mCherry-ColAP41-Cys-6His. The experiment in a line: EIA 8 plex n° 1: colicin coated at 100 nM, Im-RLuc8 at 100 nM, luminescence; light bar alone, dark bar with the 7 other unfused Im proteins.
The target of test [12] is T4, Flag-mCherry-ColSyr-Cys-6His. Described as above.
For test [13], the target named is T5, Flag-mCherry-ColE8-6His. The experiment in a line: EIA 8 plex n° 2: colicin coated at 100 nM, Im-RLuc8 alone at 100 nM, luciferase signal.
Test [14] has as its target T6, Flag-mCherry-ColLeaf-Cys-6His. Described as above.
In test [15] the target is T7, Flag-mCherry-ColKhan-Cys-6His (Photorhabdus khanii). Briefly: EIA 8 plex n° 1: colicin coated at 100 nM, Im-RLuc8 alone at 100 nM, luciferase signal (FIG. 3, light grey bars).
In test [16] the target is T7, Flag-mCherry-ColKhan-Cys-6His. Briefly: EIA 8 plex n° 2: colicin coated at 100 nM, Im-RLuc8 alone at 100 nM, luciferase signal (FIG. 4, light grey bars).
For test [17], the target named is Flag-mCherry-ColErw-Cys-6His (Pectobacterium carotovorum). Briefly: EIA 8 plex n° 1: colicin coated at 100 nM, Im-RLuc8 alone at 100 nM, luciferase signal.
Test [18] addresses T5, Flag-mCherry-ColE8-6His. Briefly: EIA 8 plex n° 1: colicin coated at 100 nM, Im-RLuc8 at 100 nM, luminescence; light bar alone, dark bar with the 7 other unfused Im proteins.
In test [19] the target is T2, Flag-EmGFP-ColE7-6His. The test is described as above.
Test [20] has as its target T8, Flag-EmGFP-ColE2-6His (Escherichia coli).
T8 construct: Coated on the plate or sprayed on the membrane; also called Colicin E2
The test is described as above.

For test [21], the target named is T1, Flag-mCherry-ColE9-6His. The test is described as above.

B1: Myc-RLuc8-Im9-6His (other)
chain: MGGEQKLISEEDLGGSASKVYDPEQRKRMITGPQWWARCKQMNVLDSFINYYDSEKHAENAVIFLHGNATSSYLWRHVVPHIEPVARCIIPDLIGMGKSGKSGNGSYRLLDHYKYLTAWFELLNLPKKIIFVGHDWGAALAFHYAYEHQDRIKAIVHMESVVDVIESWDEWPDIEEDIALIKSEEGEKMVLENNFFVETVLPSKIMRKLEPEEFAAYLEPFKEKGEVRRPTLSWPREIPLVKGGKPDVVQIVRNYNAYLRASDDLPKLFIESDPGFFSNAIVEGAKKFPNTEFVKVKGLHFLQEDAPDEMGKYIKSFVERVLKNEQKLELKHSISDYTEAEFLQLVTTICNADTSSEEELVKLVTHFEEMTEHPSGSDLIYYPKEGDDDSPSGIVNTVKQWRAANGKLEGGGSHHHHHH
notes: Immunity protein fused to the luciferase RLuc8 as reporter; added in solution; also called Im9-RLuc8; Im9-Rluc8
By Kd is commonly meant the concentration at which binding is half-saturated. A higher Kd goes with lower affinity. Take B1: the RLU was more than 2e+06 RLU in test [1]; more than 2.4e+06 RLU in test [2]; more than 100000 RLU in [3]; more than 100000 RLU in test [4]; more than 100000 RLU in [5]; more than 400000 RLU in test [9]. Further, the RLU in [13] and in test [14] was more than 100000 RLU throughout. In addition, the Kd in test [6] amounted to 64 nM; in [7] it was 38 nM; in test [8], 0.024 pM. Moreover, the binding result in test [10], in test [11] and in test [12] was “no binding (tested: 100 nM)” in each case.

B2: Avitag-RLuc8-ImKhan-6His (other)
chain: MGLNDIFEAQKIEWHEGGSGGSGGSASKVYDPEQRKRMITGPQWWARCKQMNVLDSFINYYDSEKHAENAVIFLHGNATSSYLWRHVVPHIEPVARCIIPDLIGMGKSGKSGNGSYRLLDHYKYLTAWFELLNLPKKIIFVGHDWGAALAFHYAYEHQDRIKAIVHMESVVDVIESWDEWPDIEEDIALIKSEEGEKMVLENNFFVETVLPSKIMRKLEPEEFAAYLEPFKEKGEVRRPTLSWPREIPLVKGGKPDVVQIVRNYNAYLRASDDLPKLFIESDPGFFSNAIVEGAKKFPNTEFVKVKGLHFLQEDAPDEMGKYIKSFVERVLKNEQGGGSTAGGGGSELKNKLEDYTEAEFLSLLNKIWAVDVSEEEHDNLIDHFEKLSEHPNGNGLIFYPENGVEDSPEGVLKVIKEWRAKNGKPGFKKLEGGGSHHHHHH
notes: Immunity protein fused to the luciferase RLuc8 as reporter; added in solution; also called ImKhan-Rluc8; ImKahn
Regarding B2, the RLU in [15] is more than 2e+06 RLU; in test [16], more than 2.4e+06 RLU; in test [17] it was more than 100000 RLU. For the same molecule, the binding result in test [10], in [18], in test [19], in test [11], in test [20] and in test [21] was “no binding (tested: 100 nM)” throughout. Besides, in test [12], the binding result is “no binding (tested: 100 nM)”.
